Molecular target: Isu1 (mature, residues 36-165) with the C-terminal His tag (S. cerevisiae) (UniProt Q03020)
Test: native MS

stoichiometry N: 1
B1: Hsc20 without tag, co-expressed with Isu1 and Ssq1* (natural protein)
chain: TSTFYELFPKTFPKKLPIWTIDQSRLRKEYRQLQAQHHPDMAQQGSEQSSTLNQAYHTLKDPLRRSQYMLKLLRNIDLTQEQTSNEVTTSDPQLLLKVLDIHDELSQMDDEAGVKLLEKQNKERIQDIEAQLGQCYNDKDYAAAVKLTVELKYWYNLAKAFKDWAPGKQLEMNH
